Molecular target: Cd^2+-bound Y82C-KcsA (UniProt P0A334)
Test: crystal structure

stoichiometry N: 4
Substance: Cd^2+-bound Y82C-KcsA (from UniProt P0A334 1-160) (natural protein)
